{
  "source": "paper PMC7319964",
  "about": "“The MiDAC histone deacetylase complex is essential for embryonic development and has a unique multivalent structure” (Nature Communications, 2020)",
  "target": "the molecule itself",
  "assay": "cryo-EM structure; complex of HDAC1, MIDEAS ELM2-SANT and DNTTIP1 lacking the DNA-binding domain; 50 µM SAHA and 50 µM InsP6, glutaraldehyde cross-linked on ice; dimer map ~4 Å (C2) and tetramer map 4.5 Å (D2) from the same grids",
  "data": [
    {"protein": "ELM2-SANT domain from MIDEAS (domain or fragment, UniProt Q6PJG2 717-887, looked up, MIDEAS (ELMSAN1, c14orf43) ELM2-SANT domain; The tag is followed by a TEV protease cleavage site; TEV released the complex from the anti-FLAG resin; also called MIDEAS co-repressor protein; not shown: 10xHis, N-terminal, cleaved; 3xFLAG, N-terminal, cleaved) VSIEPRINVGSRFQAEIPLMRDRALAAADPHKADLVWQPWEDLESSREKQRQVEDLLTAACSSIFPGAGTNQELALHCLHESRGDILETLNKLLLKKPLRPHNHPLATYHYTGSDQWKMAERKLFNKGIAIYKKDFFLVQKLIQTKTVAQCVEFYYTYKKQVKIGRNGTLT", "values": [
      {"measurement": "binding result", "value": "binds"}
    ]}
  ]
}
